“Also recorded” adds a separate entry of the source.

This note sets out measurements from patent publication US8273705B2, “Conversion of apoptotic proteins” (The Burnham Institute, priority 2002, dated 2012).

For one assay, the target named is T1, Bcl-2 (Homo sapiens, UniProt P10415).
T1 construct: expressed in transfected cells; host or cells: HEK293T
Kind of assay: Co-IP assay of TR3 mutants with Bcl-2 in HEK293T cells. The assay is classed as binding. As to conditions: GFP fusions co-transfected with Bcl-2 in HEK293T cells. As to the method: TR3/Bcl-2 interaction assays—Reporter gene assays using NurRE-tk-CAT in CV-1 cells, and GST pull-down assay were described previously (Li, et al. 2000 Science 289, 1159-1164). For the mammalian two-hybrid assays, CV-1 cells were co-transfected with pcDNA-Gal4TAD-TR3 or pcDNA-Gal4TAD-TR3/ΔDBD and pcDNA-Gal4DBD-Bcl-2/ΔTM along with a luciferase reporter gene driven by four copies of the Gal4-binding site. The cells were harvested and reporter gene activity was measured. For Co-IP assays, HEK293T cells were transiently transfected with various expression plasmids using a modified calcium phosphate precipitation method (Wu et al, 1997) in the presence of caspase inhibitors (zVAD-fmk) to prevent degradation of TR3 protein due to apoptosis. Cells were suspended in lysis buffer (50 mM Tris-HCl, PH7.4; 150 mM NaCl; 20 mM EDTA; 1% NP-40; 1 mM PMSF; 50 μg/ml Leupeptin; […]; 0.1 mM Na3VO4; and 1 mM DTT). Cells extracts were cleared by incubation with the Protein A/G plus Agarose beads (Santa Cruz) and then incubated with appropriate antibody and 30 μl of Protein A or G plus Agarose beads overnight at 4° C. Beads were then washed and boiled in Laemmli gel-loading solution before performing SDS-PAGE/immunoblotting using the following polyclonal or monoclonal antibodies: monoclonal mouse anti-GFP (Medical and Biological Laboratories), monoclonal mouse anti-HA (Roche Molecular Biochemicals), monoclonal mouse anti-FLAG (Sigma), monoclonal mouse anti-Myc (Santa Cruz), polyclonal rabbit anti-TR3 (Active Motif), or monoclonal mouse anti-Bcl-2 (Santa Cruz). Immunoreactive products were detected by chemiluminescence with an enhanced chemiluminescence system (ECL) (Amersham).
TR3/ΔDBD, which can constitutively reside on mitochondria, was also analyzed by co-immunoprecipitation (Co-IP) assay for its interaction with Bcl-2. GFP-TR3/ΔDBD was transfected into human embryonic kidney cell line 293T alone or together with a Bcl-2 expression vector. The expressed GFP-TR3/ΔDBD mutant protein as then precipitated by using either anti-Bcl-2 antibody or control IgG and detected by western blotting using anti-GFP antibody. The same membranes were also blotted with anti-Bcl-2 antibody to determine precipitation specificity and efficiency. Input represents 10% of total cell extract used in the precipitation assays.
Several TR3 mutants were analyzed to determine the domain of TR3 which interacts with Bcl-2. The TR3 mutants are schematically represented in FIG. 1. A Co-IP assay was performed, as described above. […] Cell extracts were prepared and incubated with anti-Bcl-2 antibody or control IgG for Co-IP assays. Lysates were immunoprecipitated by using either polyclonal rabbit anti-Bcl-2 antibody or control IgG. Cell lysates and immunoprecipitates were examined by immunoblotting using anti-GFP antibody. The same membranes were also blotted with anti-Bcl-2 antibody (Santa Cruz) to determine IP specificity and efficiency. […] This Co-IP was specific because Bcl-2 co-transfection was necessary. […] Thus, the DC1 region in the TR3 LBD is involved in the Bcl-2 interaction.
To further determine the interaction of DC1 with Bcl-2, a region of hydrophobic amino acids ([…]—SEQ ID NO: 1) was deleted from TR3/ΔDBD, and the resulting mutant (TR3/ΔDBD/Δ471-488) was analyzed for its interaction with Bcl-2. TR3/ΔDBD/[…], with eighteen amino acids from 471 to 488 in the DC1 region deleted from TR3/ΔDBD, TR3/ΔDBD/I483A (with Ile483 replaced with Ala) and TR3/ΔDBD/L487A (with Leu487 replaced with Ala) were analyzed for their interaction with Bcl-2 by in vivo Co-IP assay as described above.

In assay [1] the test system is 293T cells. Kind of assay: Confocal microscopy of mitochondrial targeting in 293T cells. Format: cell-based, human. As to the method: Subcellular localization assays—Cells were seeded onto cover-slips in 6-well plates overnight, then transiently transfected with GFP-fusion expression plasmids. After 16 hours, cells were washed with PBS and fixed in 4% paraformaldehyde. For mitochondrial staining, cells were then incubated with anti-Hsp60 goat IgG (Santa Cruz, USA), followed by anti-goat IgG conjugated with Cy3 (Sigma). For cyt c staining, cells were incubated with monoclonal anti-cyt c IgG (PharMingen), followed by anti-mouse IgG conjugated with Cy5 (Amersham). Fluorescent images were collected and analyzed using a MRC-1024 MP laser-scanning confocal microscope (Bio-Rad). Subcellular fractionation assays were performed as described (Li, et al. 2000 Science 289:1159-1164). Briefly, cells (1×10^7 cells) suspended in 0.5 ml hypotonic buffer (5 mM Tris-HCl, pH 7.4, 5 mM KCl, 1.5 mM MgCl2, 0.1 mM EGTA, pH 8.0, and 1 mM DTT) were homogenized and cell extracts were centrifuged at 500×g for 5 min. The resulting supernatant was centrifuged at 10,000×g for 30 min at 4° C. to obtain the HM fraction. HM fraction was resuspended in 100 μl lysis buffer (10 mM Tris, pH 7.4, 150 mM NaCl, 1% Triton X-100, 5 mM EDTA, pH 8.0) for immunoblotting analysis.
A. confocal microscopy—First an experiment was performed to determine whether the deletion mutant TR3/ΔDBD targets mitochondria via its interaction with Bcl-2. In confocal microscopy analysis, GFP-TR3/ΔDBD and Bcl-2 were transfected into 293T cells alone or together. […] Bcl-2, TR3/ΔDBD and mitochondria (Hsp60) were visualized using confocal microscopy and the three images were overlaid.

Assay [2] concerns 293T cells. Kind of assay: DAPI apoptosis assay in 293T cells. The assay is classed as cell-based, human. As to conditions: 293T, co-expressed with Bcl-2, 36 h, DAPI. As to the method: Apoptosis assays—For nuclear morphological change analysis, cells were trypsinized, washed with PBS, fixed with 3.7% paraformaldehyde, and stained with DAPI (4,6-diamidino-2-phenylindole) (50 μg/ml) to visualize the nuclei by UV-microscopy. The percentages of apoptotic cells were determined by counting 300 GFP-positive cells, scoring cells having nuclear fragmentation and/or chromatin condensation.
DAPI staining was used to study the apoptotic effect of TR3/Bcl-2 interaction. 293T cells were transfected with GFP-TR3/ΔDBD alone or together with Bcl-2. After 36 h, nuclei were stained by DAPI and nuclear fragmentation and chromatin condensation were identified. Cells were also stained with anti-Bcl-2 antibody, followed by TRITC-conjugated secondary antibody (Sigma). Bcl-2 and GFP-ΔDBD expression and nuclear morphology were visualized by fluorescence microscopy, and the two images were overlaid. […] But, when Bcl-2 was cotransfected, a significant amount of transfected cells underwent apoptosis. For example, approximately 4% of cells transfected with either TR3/ΔDBD or Bcl-2 were apoptotic, compared to 35% of cell transfected with both. […] Cotransfection of Bcl-2, however, prevented BAX-induced apoptosis in these cells (see FIG. 4). The effect of Bcl-2 on apoptotic potential of TR3/ΔDBD in lung cancer and breast cancer cells was also investigated.
To characterize the pro-apoptotic mechanism of Bcl-2 in the setting of TR3-induced apoptosis, various TR3 mutants and Bcl-2 mutants were co-expressed in HEK293T cells. TR3 mutants were transfected into 293T cells together with or without Bcl-2 expression vector or with Bcl-2 mutants. After 36 h, nuclei were stained by DAPI. Cells displaying nuclear condensation or fragmentation were scored.
The role of various Bcl-2 mutants in mediating apoptosis induction by TR3 was next studied. […] The hydrophobic cleft of Bcl-2 is involved in its anti-apoptotic effect through its interaction with BH3 domain of pro-apoptotic molecules (Reed 1997 Semin Hematol 34:9-19; Reed 1997 Nature 387:773-776). To investigate whether the BH3 domain-binding motif of Bcl-2 is also involved in its apoptotic effect, various Bcl-2 mutants including Y108K Bcl-2, with a mutation in the BH3 domain-binding cleft, L137A, and G145A (all with impaired interaction with bax), were cotransfected together with TR3/ΔDBD. […] Bcl-2 mutations (Y108K, L137A, G145A) that impaired its interaction with Bax, abolished the Bcl-2 inhibitory effect on Bax-induced apoptosis, consistent with previous observations that the hydrophobic cleft of Bcl-2 is essential for its anti-apoptotic effect. […] Thus, an intact BH3 domain-binding motif in Bcl-2 is involved in its pro-apoptotic effect. In contrast to the inhibitory effect of Bcl-2 on Bax-induced apoptosis TR3/ΔDBD-induced apoptosis was augmented by co-expression of Bcl-2 in HEK293T cells.
Mitochondrial targeting of TR3 has been previously identified as being involved in its apoptotic effect. To study whether mitochondrial localization of the TR3/ΔDBD/Bcl-2 complex was involved in their apoptotic effect, TR3/ΔDBD was cotransfected with Bcl-2/ATM, a Bcl-2 lacking its transmembrane domain. […] Thus, mitochondrial localization of TR3/ΔDBD/Bcl-2 complex is involved in this apoptotic effect.

T1 sequence (P10415 whole entry): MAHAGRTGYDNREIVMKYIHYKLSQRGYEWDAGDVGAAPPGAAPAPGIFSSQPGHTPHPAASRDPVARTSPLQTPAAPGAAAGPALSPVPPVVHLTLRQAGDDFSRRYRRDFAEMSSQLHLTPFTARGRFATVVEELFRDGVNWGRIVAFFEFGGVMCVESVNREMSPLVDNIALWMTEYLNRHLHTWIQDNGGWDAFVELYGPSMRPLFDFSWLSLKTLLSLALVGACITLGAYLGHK

B1: TR3/ΔDBD/L487A: TR3/ΔDBD with Leu487 replaced with Ala (protein)
chain: MPCIQAQYGTPAPSPGPRDHLASDPLTPEFIKPTMDLASPEAAPAAPTALPSFSTFMDGYTGEFDTFLYQLPGTVQPCSSASSSASSTSSSSATSPASASFKFEDFQVYGCYPGPLSGPVDEALSSSGSDYYGSPCSAPSPSTPSFQPPQLSPWDGSFGHFSPSQTYLVLHRLQCARGFGDWIDSIAAFSRSLHSLLVDVPAFACLSALVLITDRHGLQEPRRVEELQNRIASCLKEHVAAVAGEPQPASCLSRLLGKLPELRTLCTQGLQRIFYLKLEDLVPPPPIIDKIFMDTLPF
modifications: left off: large carriers; small tags and cut ends
notes: TR3/ΔDBD with Leu487 replaced with Ala
Regarding B1, the “interaction with Bcl-2 (Co-IP)” value in the assay with Bcl-2 is reported as “significantly impaired the interaction; also recorded: largely abolished the interaction”. Besides, the colocalization with mitochondria entry with 293T cells [1] is given as “failed to colocalize with mitochondria”. Moreover, in the assay on 293T cells [2], the apoptosis result is on record as “failed to confer the apoptotic potential of Bcl-2”.

B2: TR3/ΔDBD/I483A: TR3/ΔDBD with Ile483 replaced with Ala (protein)
chain: MPCIQAQYGTPAPSPGPRDHLASDPLTPEFIKPTMDLASPEAAPAAPTALPSFSTFMDGYTGEFDTFLYQLPGTVQPCSSASSSASSTSSSSATSPASASFKFEDFQVYGCYPGPLSGPVDEALSSSGSDYYGSPCSAPSPSTPSFQPPQLSPWDGSFGHFSPSQTYLVLHRLQCARGFGDWADSILAFSRSLHSLLVDVPAFACLSALVLITDRHGLQEPRRVEELQNRIASCLKEHVAAVAGEPQPASCLSRLLGKLPELRTLCTQGLQRIFYLKLEDLVPPPPIIDKIFMDTLPF
modifications: left off: large carriers; small tags and cut ends
notes: TR3/ΔDBD with Ile483 replaced with Ala
On to B2, for which the “interaction with Bcl-2 (Co-IP)” value in the assay with Bcl-2 was “largely abolished the interaction”. Besides, in the assay with 293T cells [2], the apoptosis result is recorded as “failed to confer the apoptotic potential of Bcl-2”.

B3: DC1: C-terminal fragment of TR3 (467-536 aa), 69 amino acids (protein, listed as Homo sapiens)
chain: GLVLHRLQCARGFGDWIDSILAFSRSLHSLLVDVPAFACLSALVLITDRHGLQEPRRVEELQNRIASCLK
On to B3, for which, in the assay with Bcl-2, the “interaction with Bcl-2 (Co-IP)” value was “strongly interact with Bcl-2”. Further, the apoptosis result with 293T cells [2] is recorded as “potently induced apoptosis”.

B4: TR3/ΔDBD/ΔDC1: TR3/ΔDBD with DC1 deleted (protein)
chain: MPCIQAQYGTPAPSPGPRDHLASDPLTPEFIKPTMDLASPEAAPAAPTALPSFSTFMDGYTGEFDTFLYQLPGTVQPCSSASSSASSTSSSSATSPASASFKFEDFQVYGCYPGPLSGPVDEALSSSGSDYYGSPCSAPSPSTPSFQPPQLSPWDGSFGHFSPSQTYEHVAAVAGEPQPASCLSRLLGKLPELRTLCTQGLQRIFYLKLEDLVPPPPIIDKIFMDTLPF
modifications: left off: large carriers; small tags and cut ends
notes: TR3/ΔDBD with DC1 deleted
Consider B4, for which the “interaction with Bcl-2 (Co-IP)” value with Bcl-2 is reported as “largely abolished the interaction”. Moreover, the results for the apoptosis entry in the assay with 293T cells [2] and in the assay with 293T cells [2] (listed as TR3/ΔDBD/ADC1) were “failed to confer the apoptotic potential of Bcl-2” and “did not result in apoptosis”, respectively.
